Experimental data taken from patent publication CN106892979A.

Experiments:
Experiment in all cases: cell-based or functional assay
[1] = target: H7N9病毒Nanjing-06病毒株 (H7N9病毒)
[2] = target: H7N9病毒Suzhou-03病毒株 (H7N9病毒)
[3] = target: H7N9病毒Wuxi-01病毒株 (H7N9病毒)
[4] = target: H7N9病毒Wuxi-02病毒株 (H7N9病毒)

B1: 全人源抗H7N9病毒的单克隆中和抗体mAb635 (antibody, V domains shown)
VH: TGVHSQVQLVQSGAEVKKPGASVKISCKASGYSFTNYTLHWVRQAPGQRLEWMGWINAGNGNTRYSQKFQARVTITRDTSASTGYMEVSSLRSEDTAVYYCARGAYYGFWNGHYMGDDDNYYYGMGVWGQGPRSPSPQRR
VL: TGSLSQPVLTQPPSVSVSPGQTASITCSGDKLGDKYACWYQQKPGQSPVQVIYQDTKRPSGIPERFSGSNSGDTATLTISGTQSVDEADYYCQAWDSSRDVVFGGGTKLTVLGQPKAAPSVTLFPTLE
[1]
  中和100×TCID50病毒需要的抗体量: 80 ng
[2]
  中和100×TCID50病毒需要的抗体量: 80 ng
[3]
  中和100×TCID50病毒需要的抗体量: 160 ng
[4]
  中和100×TCID50病毒需要的抗体量: 320 ng
